Source: publication PMC5032119

Molecular target: Ku70-HisTag (mouse) (UniProt P23475)
Test: fluorescence polarisation; FIDA-PO on an MF20 (Olympus) single molecule fluorescence spectroscopy; 5 nM fluorescent Ku70-HisTag in solution, 500 nM GST-HttExon1-110Q added; 40 ul per well, 384-well glass-bottom plate, PBS with 0.01% Tween 20 and 1% DMSO, room temperature

UniProt P23475, sequence (P23475 whole entry): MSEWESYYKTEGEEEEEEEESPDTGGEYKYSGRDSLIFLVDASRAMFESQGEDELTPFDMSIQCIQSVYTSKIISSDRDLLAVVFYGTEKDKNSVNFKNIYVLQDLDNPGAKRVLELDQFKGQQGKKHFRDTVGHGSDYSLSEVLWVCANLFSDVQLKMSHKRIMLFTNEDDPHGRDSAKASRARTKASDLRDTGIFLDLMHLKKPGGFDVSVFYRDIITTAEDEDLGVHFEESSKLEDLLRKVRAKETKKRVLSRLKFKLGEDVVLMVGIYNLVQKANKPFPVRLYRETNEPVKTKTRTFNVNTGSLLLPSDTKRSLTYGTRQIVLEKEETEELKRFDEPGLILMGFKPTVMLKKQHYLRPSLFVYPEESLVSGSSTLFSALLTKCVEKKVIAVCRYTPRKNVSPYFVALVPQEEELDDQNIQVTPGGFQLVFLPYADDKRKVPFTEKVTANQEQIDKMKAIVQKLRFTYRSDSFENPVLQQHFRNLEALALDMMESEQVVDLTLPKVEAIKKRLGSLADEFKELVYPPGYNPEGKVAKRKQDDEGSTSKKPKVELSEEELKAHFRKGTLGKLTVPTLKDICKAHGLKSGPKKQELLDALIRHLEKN
GST-HttExon1-110Q, sequence (P42858 whole entry, change not shown): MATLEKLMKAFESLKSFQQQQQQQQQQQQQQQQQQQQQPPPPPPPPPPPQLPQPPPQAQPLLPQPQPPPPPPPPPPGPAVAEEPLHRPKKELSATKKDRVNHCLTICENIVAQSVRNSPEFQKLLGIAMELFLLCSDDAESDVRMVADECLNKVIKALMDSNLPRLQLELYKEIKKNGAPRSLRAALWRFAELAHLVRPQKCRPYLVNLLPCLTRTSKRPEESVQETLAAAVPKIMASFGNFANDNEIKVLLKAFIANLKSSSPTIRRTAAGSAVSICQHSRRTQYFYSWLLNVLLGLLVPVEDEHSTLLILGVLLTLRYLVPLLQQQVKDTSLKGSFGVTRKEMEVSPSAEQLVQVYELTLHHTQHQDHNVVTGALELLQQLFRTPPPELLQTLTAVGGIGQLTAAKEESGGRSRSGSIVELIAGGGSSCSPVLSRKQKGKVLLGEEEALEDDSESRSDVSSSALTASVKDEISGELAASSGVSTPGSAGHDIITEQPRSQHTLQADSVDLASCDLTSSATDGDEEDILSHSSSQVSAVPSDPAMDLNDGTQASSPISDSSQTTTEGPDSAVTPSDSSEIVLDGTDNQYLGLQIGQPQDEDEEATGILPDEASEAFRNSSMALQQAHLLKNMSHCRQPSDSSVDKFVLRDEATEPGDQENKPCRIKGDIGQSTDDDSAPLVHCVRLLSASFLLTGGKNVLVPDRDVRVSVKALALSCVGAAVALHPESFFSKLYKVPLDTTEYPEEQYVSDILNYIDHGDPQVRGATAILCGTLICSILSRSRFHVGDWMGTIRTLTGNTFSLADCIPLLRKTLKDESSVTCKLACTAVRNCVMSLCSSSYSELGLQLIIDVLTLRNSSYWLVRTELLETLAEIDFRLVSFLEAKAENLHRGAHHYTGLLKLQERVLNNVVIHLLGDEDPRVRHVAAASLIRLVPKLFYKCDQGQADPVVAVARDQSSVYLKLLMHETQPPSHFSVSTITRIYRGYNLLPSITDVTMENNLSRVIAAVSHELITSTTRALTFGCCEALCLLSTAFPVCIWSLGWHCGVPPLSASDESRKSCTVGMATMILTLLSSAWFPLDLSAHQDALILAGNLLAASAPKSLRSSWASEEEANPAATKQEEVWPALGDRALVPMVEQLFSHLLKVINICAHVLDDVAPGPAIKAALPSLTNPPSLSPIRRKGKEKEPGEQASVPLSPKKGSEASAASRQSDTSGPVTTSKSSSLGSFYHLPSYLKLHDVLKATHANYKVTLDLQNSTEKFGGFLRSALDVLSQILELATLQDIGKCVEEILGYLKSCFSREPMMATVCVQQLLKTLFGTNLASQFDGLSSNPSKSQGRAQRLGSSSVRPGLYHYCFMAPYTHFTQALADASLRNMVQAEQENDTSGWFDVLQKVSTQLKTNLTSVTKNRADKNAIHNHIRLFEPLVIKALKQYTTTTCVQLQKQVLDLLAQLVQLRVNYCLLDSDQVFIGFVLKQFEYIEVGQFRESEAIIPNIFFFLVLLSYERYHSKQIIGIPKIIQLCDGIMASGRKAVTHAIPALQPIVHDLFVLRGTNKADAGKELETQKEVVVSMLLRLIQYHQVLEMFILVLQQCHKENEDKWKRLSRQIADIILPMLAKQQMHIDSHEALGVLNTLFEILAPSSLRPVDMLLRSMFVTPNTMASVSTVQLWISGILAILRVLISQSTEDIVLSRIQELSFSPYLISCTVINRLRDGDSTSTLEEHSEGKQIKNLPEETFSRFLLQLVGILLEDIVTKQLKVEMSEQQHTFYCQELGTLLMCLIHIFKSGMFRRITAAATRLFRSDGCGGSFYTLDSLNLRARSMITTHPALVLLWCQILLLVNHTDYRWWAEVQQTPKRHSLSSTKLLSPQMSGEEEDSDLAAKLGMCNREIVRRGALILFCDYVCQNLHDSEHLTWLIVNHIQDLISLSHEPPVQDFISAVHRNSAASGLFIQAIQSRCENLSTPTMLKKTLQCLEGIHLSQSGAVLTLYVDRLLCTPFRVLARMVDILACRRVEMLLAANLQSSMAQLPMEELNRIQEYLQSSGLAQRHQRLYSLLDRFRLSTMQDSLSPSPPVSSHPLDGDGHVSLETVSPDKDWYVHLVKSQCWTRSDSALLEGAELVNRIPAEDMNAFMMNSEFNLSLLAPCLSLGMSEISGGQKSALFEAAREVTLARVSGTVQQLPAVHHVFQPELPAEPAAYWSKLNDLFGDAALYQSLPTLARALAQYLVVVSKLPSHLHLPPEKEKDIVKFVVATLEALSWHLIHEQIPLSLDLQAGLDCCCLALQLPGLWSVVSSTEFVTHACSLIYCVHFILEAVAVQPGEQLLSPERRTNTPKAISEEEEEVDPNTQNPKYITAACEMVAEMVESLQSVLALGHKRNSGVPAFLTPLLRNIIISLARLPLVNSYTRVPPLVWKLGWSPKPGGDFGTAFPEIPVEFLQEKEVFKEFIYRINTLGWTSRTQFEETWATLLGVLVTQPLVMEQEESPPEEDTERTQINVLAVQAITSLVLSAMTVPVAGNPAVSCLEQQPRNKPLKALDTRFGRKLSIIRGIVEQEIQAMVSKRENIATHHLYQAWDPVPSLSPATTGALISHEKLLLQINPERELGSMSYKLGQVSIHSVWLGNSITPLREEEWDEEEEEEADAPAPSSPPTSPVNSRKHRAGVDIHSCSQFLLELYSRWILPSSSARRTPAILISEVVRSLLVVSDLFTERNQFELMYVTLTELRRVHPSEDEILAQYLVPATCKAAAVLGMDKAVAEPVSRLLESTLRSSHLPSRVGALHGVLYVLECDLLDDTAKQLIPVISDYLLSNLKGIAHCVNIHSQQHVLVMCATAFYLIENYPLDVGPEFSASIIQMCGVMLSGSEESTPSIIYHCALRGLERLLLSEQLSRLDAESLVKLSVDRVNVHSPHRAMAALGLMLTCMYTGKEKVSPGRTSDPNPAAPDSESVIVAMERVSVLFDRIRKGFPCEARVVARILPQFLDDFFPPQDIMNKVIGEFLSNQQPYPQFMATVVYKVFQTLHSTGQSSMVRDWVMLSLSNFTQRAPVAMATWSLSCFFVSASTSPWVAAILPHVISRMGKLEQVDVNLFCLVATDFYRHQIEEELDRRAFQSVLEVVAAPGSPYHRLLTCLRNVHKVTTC

- fluorescence polarization score: 140
Substance: GST-HttExon1-110Q (domain or fragment)
